In paper PMC10720265:

Legend:
Test in all cases: MYC IP followed by mass spectrometry (IP-MS)
Conditions in all cases: three biological replicates; HeLa cell lysates; signals normalized to bait protein levels; read off a plot
[1] = target: ARS2, endogenous in HeLa cells
[2] = target: NCBP1, CBC component, endogenous in HeLa cells (UniProt Q09161)
[3] = target: NCBP2, CBC component, endogenous in HeLa cells (UniProt P52298)
Sequence of UniProt P52298 (P52298 whole entry): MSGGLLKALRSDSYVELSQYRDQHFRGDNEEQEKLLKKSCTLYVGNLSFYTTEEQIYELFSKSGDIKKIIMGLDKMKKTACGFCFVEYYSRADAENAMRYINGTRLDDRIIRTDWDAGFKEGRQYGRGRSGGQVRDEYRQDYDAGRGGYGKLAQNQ

Sequence of UniProt Q09161 (Q09161 whole entry): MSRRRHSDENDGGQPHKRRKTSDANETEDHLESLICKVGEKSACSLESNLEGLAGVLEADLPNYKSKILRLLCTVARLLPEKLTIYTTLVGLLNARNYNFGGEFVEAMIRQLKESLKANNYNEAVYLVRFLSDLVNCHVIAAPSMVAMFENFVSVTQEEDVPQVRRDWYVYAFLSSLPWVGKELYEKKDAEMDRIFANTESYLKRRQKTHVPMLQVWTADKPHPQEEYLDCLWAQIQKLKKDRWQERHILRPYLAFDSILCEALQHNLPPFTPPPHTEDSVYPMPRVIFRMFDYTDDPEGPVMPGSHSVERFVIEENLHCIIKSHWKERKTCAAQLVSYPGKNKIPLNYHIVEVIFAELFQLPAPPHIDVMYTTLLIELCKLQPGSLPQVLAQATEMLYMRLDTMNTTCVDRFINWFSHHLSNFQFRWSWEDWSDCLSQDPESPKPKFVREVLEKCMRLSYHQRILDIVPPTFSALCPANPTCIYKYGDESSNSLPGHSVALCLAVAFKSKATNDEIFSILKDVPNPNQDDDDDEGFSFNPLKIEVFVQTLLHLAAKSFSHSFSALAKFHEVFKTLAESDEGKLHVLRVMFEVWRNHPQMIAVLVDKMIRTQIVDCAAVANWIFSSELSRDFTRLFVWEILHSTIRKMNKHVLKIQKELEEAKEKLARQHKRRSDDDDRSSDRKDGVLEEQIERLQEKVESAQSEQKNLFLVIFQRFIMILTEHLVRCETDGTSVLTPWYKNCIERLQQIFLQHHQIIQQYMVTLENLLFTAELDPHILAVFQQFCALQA

other: log2 fold change (Z1 1-209(WT)/Z1 1-209(MUT)) [1]: 6.9 log2 | other: log2 fold change (Z1 1-209(WT)/Z1 1-209(MUT)) [2]: 2.1 log2 | other: log2 fold change (Z1 1-209(WT)/Z1 1-209(MUT)) [3]: 1.8 log2
Substance: Z1^1-209(WT), MYC-tagged N-terminal fragment of human ZFC3H1 (from UniProt O60293) … -> … (E->A; E->A; D->A; E->A; residue numbers not printed)
